In patent publication US20180064827:

Assays:
Test in all cases: cell_activity
[1] = test system: ZFN 64946 (synthetic); settings: pair with 64951, Hepa1-6
[2] = test system: ZFN 60412 (synthetic); settings: pair with 64951, Hepa1-6
[3] = test system: ZFN 64944 (synthetic); settings: pair with 64952, Hepa1-6
[4] = test system: ZFN 64947 (synthetic); settings: pair with 64952, Hepa1-6
[5] = test system: ZFN 60133 (synthetic); settings: pair with 60134, K562
[6] = test system: ZFN 60413 (synthetic); settings: pair with 64944, Hepa1-6
[7] = test system: ZFN 64952 (synthetic); settings: pair with 64944, Hepa1-6
[8] = test system: ZFN 64951 (synthetic); settings: pair with 64946, Hepa1-6
[9] = test system: ZFN 64555 (synthetic); settings: pair with 66075, 5 ug/mL
[10] = test system: ZFN 67451 (synthetic); settings: pair with 60502, HepG2, 40 ug/mL
[11] = test system: ZFN 60501 (synthetic); settings: pair with 67458, HepG2, 40 ug/mL
[12] = test system: ZFN 64066 (synthetic); settings: pair with 60502, HepG2, 40 ug/mL
[13] = test system: ZFN 65098 (synthetic); settings: pair with 65086, Hepa1-6
[14] = test system: ZFN 58781 (synthetic); settings: pair with 65086, Hepa1-6
[15] = test system: ZFN 65095 (synthetic); settings: pair with 65086, Hepa1-6
[16] = test system: ZFN 65094 (synthetic); settings: pair with 65086, Hepa1-6
[17] = test system: ZFN 60134 (synthetic); settings: pair with 60133, K562
[18] = test system: ZFN 69909 (synthetic); settings: pair with 69912, 0.1 ug mRNA, MK2
[19] = test system: ZFN 69903 (synthetic); settings: pair with 69912, 0.1 ug mRNA, MK2
[20] = test system: ZFN 69908 (synthetic); settings: pair with 69912, 0.1 ug mRNA, MK2
[21] = test system: ZFN 67495 (synthetic); settings: pair with 60750, HepG2, 40 ug/mL
[22] = test system: ZFN 60751 (synthetic); settings: pair with 64347, HepG2, 40 ug/mL
[23] = test system: ZFN 67493 (synthetic); settings: pair with 60750, HepG2, 40 ug/mL
[24] = test system: ZFN 69925 (synthetic); settings: pair with 69916, 0.1 ug mRNA, MK2
[25] = test system: ZFN 69928 (synthetic); settings: pair with 69916, 0.1 ug mRNA, MK2
[26] = test system: ZFN 69929 (synthetic); settings: pair with 69920, 0.1 ug mRNA, MK2
[27] = test system: ZFN 69922 (synthetic); settings: pair with 69916, 0.1 ug mRNA, MK2
[28] = test system: ZFN 69926 (synthetic); settings: pair with 69915, 0.1 ug mRNA, MK2
[29] = test system: ZFN 64080 (synthetic); settings: pair with 60501, HepG2, 40 ug/mL
[30] = test system: ZFN 67458 (synthetic); settings: pair with 60501, HepG2, 40 ug/mL
[31] = test system: ZFN 60502 (synthetic); settings: pair with 64066, HepG2, 40 ug/mL
[32] = test system: ZFN 64982 (synthetic); settings: pair with 64971, Hepa1-6; finger linker variant 64972 gave 89.0
[33] = test system: ZFN 60461 (synthetic); settings: pair with 64971, Hepa1-6
[34] = test system: ZFN 64983 (synthetic); settings: pair with 64971, Hepa1-6
[35] = test system: ZFN 60423 (synthetic); settings: pair with 64793, Hepa1-6
[36] = test system: ZFN 64844 (synthetic); settings: pair with 64793, Hepa1-6
[37] = test system: ZFN 64842 (synthetic); settings: pair with 64793, Hepa1-6
[38] = test system: ZFN 60043 (synthetic); settings: pair with 60045, K562
[39] = test system: ZFN 60259 (synthetic); settings: pair with 60254, K562
[40] = test system: ZFN 58780 (synthetic); settings: pair with 65094, Hepa1-6
[41] = test system: ZFN 65085 (synthetic); settings: pair with 65098, Hepa1-6
[42] = test system: ZFN 65086 (synthetic); settings: pair with 65094, Hepa1-6
[43] = test system: ZFN 60289 (synthetic); settings: pair with 60287, K562
[44] = test system: ZFN 64347 (synthetic); settings: pair with 60751, HepG2, 40 ug/mL
[45] = test system: ZFN 60045 (synthetic); settings: pair with 60043, K562
[46] = test system: ZFN 60334 (synthetic); settings: pair with 60137, K562
[47] = test system: ZFN 69920 (synthetic); settings: pair with 69922, 0.1 ug mRNA, MK2
[48] = test system: ZFN 69919 (synthetic); settings: pair with 69922, 0.1 ug mRNA, MK2
[49] = test system: ZFN 69915 (synthetic); settings: pair with 69922, 0.1 ug mRNA, MK2
[50] = test system: ZFN 69918 (synthetic); settings: pair with 69922, 0.1 ug mRNA, MK2
[51] = test system: ZFN 69916 (synthetic); settings: pair with 69922, 0.1 ug mRNA, MK2
[52] = test system: ZFN 64848 (synthetic); settings: pair with 64866, Hepa1-6
[53] = test system: ZFN 60416 (synthetic); settings: pair with 64866, Hepa1-6
[54] = test system: ZFN 64859 (synthetic); settings: pair with 64869, Hepa1-6
[55] = test system: ZFN 60309 (synthetic); settings: pair with 60308, K562
[56] = test system: ZFN 60254 (synthetic); settings: pair with 60259, K562; N7a version 60256 gave 74.32
[57] = test system: ZFN 64989 (synthetic); settings: pair with 65021, Hepa1-6
[58] = test system: ZFN 64992 (synthetic); settings: pair with 65021, Hepa1-6
[59] = test system: ZFN 60392 (synthetic); settings: pair with 65022, Hepa1-6
[60] = test system: ZFN 25277 (synthetic); settings: pair with 25264, K562, 200 ng
[61] = test system: ZFN 60422 (synthetic); settings: pair with 64842, Hepa1-6
[62] = test system: ZFN 64793 (synthetic); settings: pair with 64842, Hepa1-6
[63] = test system: ZFN 64802 (synthetic); settings: pair with 64842, Hepa1-6
[64] = test system: ZFN 64791 (synthetic); settings: pair with 64842, Hepa1-6
[65] = test system: ZFN 60308 (synthetic); settings: pair with 60309, K562
[66] = test system: ZFN 66075 (synthetic); settings: pair with 64555, 5 ug/mL
[67] = test system: ZFN 66079 (synthetic); settings: pair with 64555, 5 ug/mL
[68] = test system: ZFN 64552 (synthetic); settings: pair with 66083 or 66084, 5 ug/mL
[69] = test system: ZFN 25264 (synthetic); settings: pair with 25277, K562, 200 ng
[70] = test system: ZFN 60750 (synthetic); settings: pair with 67495, HepG2, 40 ug/mL
[71] = test system: ZFN 64969 (synthetic); settings: pair with 64982, Hepa1-6
[72] = test system: ZFN 60460 (synthetic); settings: pair with 64982, Hepa1-6
[73] = test system: ZFN 64971 (synthetic); settings: pair with 64982, Hepa1-6
[74] = test system: ZFN 60137 (synthetic); settings: pair with 60334, K562
[75] = test system: ZFN 69912 (synthetic); settings: pair with 69909, 0.1 ug mRNA, MK2
[76] = test system: ZFN 69913 (synthetic); settings: pair with 69909, 0.1 ug mRNA, MK2
[77] = test system: ZFN 60417 (synthetic); settings: pair with 64859, Hepa1-6
[78] = test system: ZFN 64869 (synthetic); settings: pair with 64859, Hepa1-6
[79] = test system: ZFN 64866 (synthetic); settings: pair with 64859, Hepa1-6
[80] = test system: ZFN 65021 (synthetic); settings: pair with 64989, Hepa1-6
[81] = test system: ZFN 60393 (synthetic); settings: pair with 64989, Hepa1-6
[82] = test system: ZFN 65022 (synthetic); settings: pair with 64989, Hepa1-6

GCTAAGTGCATGGCTGTCTGGTTCTGTA (double strand) [mouse PCSK9 site E left]
activity [1]: 51.3 % indel
activity [2]: 28.6 % indel
activity [3]: 49.1 % indel
activity [4]: 42 % indel

CCGCCCGGTACCGTGGAGGGGTAATCCG (double strand) [human PCSK9 60133 site]
activity [5]: 72.6 % indel

CACATGGGGCAACTTCAGGGCCTACAGA (double strand) [mouse PCSK9 site E right]
activity [6]: 41.4 % indel
activity [7]: 49.1 % indel
activity [8]: 51.3 % indel

TCCCAGCTGATAGATGGGTCTATTGCTT (double strand) [M. mulatta HAO1 right]
activity [9]: 86.9 % indel

GAGCAGACGATGAGAAGCCATCCTGCCA (double strand) [human TTR 60501 site]
activity [10]: 36.6 % indel
activity [11]: 47.6 % indel
activity [12]: 37.3 % indel

GTGGTGCTGATGGAGGAGACCCAGAGGC (double strand) [mouse PCSK9 site J right]
activity [13]: 77.2 % indel
activity [14]: 62.3 % indel
activity [15]: 76.7 % indel
activity [16]: 77.8 % indel

TTACCGGGGGGCTGGTATTCATCCGCCC (double strand) [human PCSK9 60134 site]
activity [17]: 72.6 % indel

GTGGAGGCTGCCCGGCACCTACGTGGTG (double strand) [M. mulatta PCSK9 exon 2 left]
activity [18]: 58.7 % indel
activity [19]: 33.7 % indel
activity [20]: 42.5 % indel

TGCATGCTCATGGAATGGGGAGATGCCA (double strand) [human TTR exon 3 right]
activity [21]: 61.8 % indel
activity [22]: 63.5 % indel
activity [23]: 59.2 % indel

GGGGTGGTGACTTACCAGCCACGTGGGC (double strand) [M. mulatta PCSK9 exon 7 right]
activity [24]: 77 % indel
activity [25]: 69.2 % indel
activity [26]: 43.3 % indel
activity [27]: 81.4 % indel
activity [28]: 37 % indel

CTGCCTTGCTGGACTGGTATTTGTGTCT (double strand) [human TTR 60502 site]
activity [29]: 47 % indel
activity [30]: 47.6 % indel
activity [31]: 37.3 % indel

GGGGTGGTGACTCACCGGCCACGTGGGC (double strand) [mouse PCSK9 site F right]
activity [32]: 95.9 % indel
activity [33]: 85.8 % indel
activity [34]: 95.2 % indel

GGCACGCTGTTGAAGTCGGTGATGGTGA (double strand) [mouse PCSK9 site A right]
activity [35]: 35.8 % indel
activity [36]: 42.9 % indel
activity [37]: 44.9 % indel

AGGATCCGTGGAGGTTGCCTGGCACCTA (double strand) [human PCSK9 60043 site]
activity [38]: 65.4 % indel

GAGGCTGGGGAGTAGAGGCAGGCATCGT (double strand) [human PCSK9 60259 site]
activity [39]: 75.7 % indel

CTGGAGGCTGCCAGGAACCTACATTGTG (double strand) [mouse PCSK9 site J left]
activity [40]: 69.6 % indel
activity [41]: 73.5 % indel
activity [42]: 77.8 % indel

AGAGAAGTGGATCAGTCTCTGCCTCAAC (double strand) [human PCSK9 60289 site]
activity [43]: 73.1 % indel

TCTTACTGGAAGGCACTTGGCATCTCCC (double strand) [human TTR 64347 site]
activity [44]: 63.5 % indel

TACGTGGTGGTGCTGAAGGAGGAGACCC (double strand) [human PCSK9 60045 site]
activity [45]: 65.4 % indel

GGTACCGGGCGGATGAATACCAGCCCCC (double strand) [human PCSK9 60334 site]
activity [46]: 67.9 % indel

GTGGGACATCGCAGGCTGCTGCCCACGT (double strand) [M. mulatta PCSK9 exon 7 left]
activity [47]: 72.1 % indel
activity [48]: 76.1 % indel
activity [49]: 78 % indel
activity [50]: 71.2 % indel
activity [51]: 81.4 % indel

CAGAGCATCCCATGGAACCTGGAGCGAA (double strand) [mouse PCSK9 site B left]
activity [52]: 73.6 % indel
activity [53]: 35.7 % indel
activity [54]: 82.4 % indel

TATCCCCGGCGGGCAGCCTGGGCCTGCA (double strand) [human PCSK9 60309 site]
activity [55]: 71.8 % indel

CGCTGCCGGCAACTTCCGGGACGATGCC (double strand) [human PCSK9 60254 site]
activity [56]: 75.7 % indel

AGGATGGAGATTATGAAGAGCTGATGCT (double strand) [mouse PCSK9 site G left]
activity [57]: 83.3 % indel
activity [58]: 79.8 % indel
activity [59]: 69.2 % indel

GAAAGGGACTGAAGCTGCTGGGGCCATG (double strand) [SERPINA1 25277 site]
activity [60]: 40.9 % indel

TCGGGAGATTGAGGGCAGGGTCACCATC (double strand) [mouse PCSK9 site A left]
activity [61]: 35 % indel
activity [62]: 44.9 % indel
activity [63]: 43 % indel
activity [64]: 41.8 % indel

TGCAGGCGGCGGGCAGTGCGCTCTGACT (double strand) [human PCSK9 60308 site]
activity [65]: 71.8 % indel

ACTTGCTGCATATGTGGCTAAAGCAATA (double strand) [M. mulatta HAO1 left]
activity [66]: 86.9 % indel
activity [67]: 84.2 % indel
activity [68]: 80.6 % indel

GTCGATGGTCAGCACAGCCTTATGCACG (double strand) [SERPINA1 25264 site]
activity [69]: 40.9 % indel

CTTACTGGAAGGCACTTGGCATCTCCCC (double strand) [human TTR 60750 site]
activity [70]: 61.8 % indel

GTGGGACCTCACAGGCTGCTGCCCACGT (double strand) [mouse PCSK9 site F left]
activity [71]: 86.1 % indel
activity [72]: 53.8 % indel
activity [73]: 95.9 % indel

AGATGGGGGTCTTACCGGGGGGCTGGTA (double strand) [human PCSK9 60137 site]
activity [74]: 67.9 % indel

GTGGTGCTGAAGGAGGAGACCCACCGCT (double strand) [M. mulatta PCSK9 exon 2 right]
activity [75]: 58.7 % indel
activity [76]: 53.4 % indel

CTGGTGCCATGCTGGGATAATTCGCTCC (double strand) [mouse PCSK9 site B right]
activity [77]: 53 % indel
activity [78]: 82.4 % indel
activity [79]: 79 % indel

TCCTCCTGGGACGGGAGGGCGAGCATCA (double strand) [mouse PCSK9 site G right]
activity [80]: 83.3 % indel
activity [81]: 60.9 % indel
activity [82]: 76.3 % indel
